B1: 6FAM-ribo(C*G*C*C*U) (ssRNA)
RNA: CGCCU
modifications: * between all nucleotides (probably phosphorothioate; not defined in the material)
B2: 6FAM-deoxy(C*G*C*C*T) (ssDNA)
DNA: CGCCT
modifications: * between all nucleotides (probably phosphorothioate; not defined in the material)

Assays:
Assay in all cases: fluorescence polarization; 50 mM Tris-HCl pH 8.0, 50 mM KCl, 1 mM EDTA; 50 nM labeled oligonucleotide; temperature not stated
Conditions in all cases: protein: recombinant; chain copies: 2; label: 5'-6-carboxyfluorescein; single strand
[1] = biological target: SAMHD1 HD domain R366H (UniProt Q9Y3Z3 114-626, R366H)
[2] = biological target: SAMHD1 HD domain R366C (UniProt Q9Y3Z3 114-626, R366C)
[3] = biological target: SAMHD1 HD domain WT (UniProt Q9Y3Z3 114-626)
Sequence of SAMHD1 HD domain WT (Q9Y3Z3 114-626): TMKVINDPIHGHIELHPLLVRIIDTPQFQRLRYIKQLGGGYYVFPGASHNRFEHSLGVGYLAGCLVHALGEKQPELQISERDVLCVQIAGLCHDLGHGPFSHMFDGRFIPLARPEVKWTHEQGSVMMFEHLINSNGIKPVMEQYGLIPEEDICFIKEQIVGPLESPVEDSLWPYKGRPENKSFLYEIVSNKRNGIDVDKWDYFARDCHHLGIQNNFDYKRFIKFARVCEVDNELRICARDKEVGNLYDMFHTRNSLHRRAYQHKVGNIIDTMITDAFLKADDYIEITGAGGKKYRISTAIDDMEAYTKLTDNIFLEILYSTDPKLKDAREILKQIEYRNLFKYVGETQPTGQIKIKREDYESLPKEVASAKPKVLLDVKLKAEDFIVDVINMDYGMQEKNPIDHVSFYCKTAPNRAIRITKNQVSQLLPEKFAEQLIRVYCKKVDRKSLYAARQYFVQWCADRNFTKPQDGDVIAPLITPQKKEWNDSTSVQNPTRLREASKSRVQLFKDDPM

Sequence of SAMHD1 HD domain R366C (Q9Y3Z3 114-626 R366C): as the sequence (Q9Y3Z3 114-626) above, with R253C counted along it
Sequence of SAMHD1 HD domain R366H (Q9Y3Z3 114-626 R366H): as the sequence (Q9Y3Z3 114-626) above, with R253H counted along it

Row | Binder | Kd [1] | Kd [2] | Kd [3]
1 | B1 | 1120 ± 42 nM | 1450 ± 51 nM | 154 ± 4.2 nM
2 | B2 | 606 ± 46 nM | 689 ± 39 nM | 147 ± 8.3 nM

From paper PMC8497992, “Structural and functional characterization explains loss of dNTPase activity of the cancer-specific R366C/H mutant SAMHD1 proteins”
